Substitutions are numbered along the chain they refer to. Like-named read-outs stand apart in the source and are kept apart here. Non-standard residues stand in square brackets, D forms with d. No end group written: not given here. *: point of attachment. Biotin = O=C1N[C@H]2[C@H](CS[C@H]2CCCCC(=O)*)N1; pS = N[C@@H](COP(=O)(O)O)C(=O)O; code U = not defined here; code X = not defined here

The term Kd denotes the constant that tells how readily two partners part at equilibrium. Lower therefore signals a tighter complex. Usually koff stands for a measure of how fast the partners let go of each other. Low readings indicate a long-lived complex, high ones a short-lived complex. A word on the kon: it is the rate constant with which the complex forms. Read a low kon as slow association. In general, EC50 refers to the concentration at which the effect is half-maximal. A low value points to greater potency.

Test [1] deals with T1, full length human tau SEQ ID NO: 01 (human, UniProt P10636 1-758).
T1 construct: not phosphorylated; also called tau protein; non-phosphorylated full-length human tau
T1 sequence (P10636 other isoform, or with tags, fused parts or gaps limits assumed): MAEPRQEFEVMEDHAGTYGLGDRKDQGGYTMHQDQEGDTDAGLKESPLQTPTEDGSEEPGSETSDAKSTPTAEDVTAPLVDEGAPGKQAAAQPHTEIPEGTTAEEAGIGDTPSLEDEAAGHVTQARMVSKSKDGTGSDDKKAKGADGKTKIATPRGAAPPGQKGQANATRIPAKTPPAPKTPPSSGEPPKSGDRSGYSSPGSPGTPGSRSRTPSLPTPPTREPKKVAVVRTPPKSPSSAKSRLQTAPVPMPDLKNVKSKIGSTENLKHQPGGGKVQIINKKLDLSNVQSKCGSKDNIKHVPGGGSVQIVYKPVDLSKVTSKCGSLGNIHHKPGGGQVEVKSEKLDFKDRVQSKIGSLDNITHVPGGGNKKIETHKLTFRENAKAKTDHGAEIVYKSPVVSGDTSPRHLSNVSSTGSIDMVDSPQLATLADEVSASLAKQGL
As to the kind of experiment: ELISA. As for the experimental part: (§1) Non-biotinylated peptide/protein/aggregate was added to non-coated Maxisorb plates, biotinylated peptide/protein/aggregate in PBS was added to streptavidin-coated Maxisorb plates, and plates were incubated over-night. The supernatant was discarded and the wells washed three times with 90 μl wash buffer (1x PBS/0.1% Tween 20). Remaining reactive spots were blocked with blocking buffer (1x PBS/2% BSA (Bovine Serum Albumin Fraction V, fatty acid free, Roche, Cat. No.: 10735078001)/0.05% Tween 20) by incubating for 1 hour. The supernatant was discarded and the wells washed three times with 90 μl wash buffer. Samples and control antibody were prepared in 12 dilutions (1:2) in ELISA buffer (1×PBS/0.5% BSA (Bovine Serum Albumin Fraction V, fatty acid free, Roche, Cat. […] The incubation time was 60 minutes at room temperature on a shaker. The supernatant was discarded and the wells washed three times with 90 μl wash buffer. Solutions of secondary antibody were prepared in ELISA buffer. A total of 25 μl antibody-mix was transferred to all wells of the assay plate and the plate was thereafter incubated on shaker for 60 minutes at room temperature. The supernatant was discarded and the wells were washed three times with 90 μl wash buffer. 25 μl of ABTS solution was added to all wells. The absorbance was read at 405 nm-492 nm.
For orientation: In an ELISA, binding on a coated surface is turned into a signal by an enzyme label.

In test [2] the target is T2, tau peptide residues 416 to 430 of SEQ ID NO: 01 (human, also: biotinylated, site not given here).
T2 construct: also called non-phosphorylated tau peptide
T2 peptide: SIDMVDSPQLATLAD
As to the kind of experiment: ELISA. As for the experimental part: as §1

Test [3] addresses T3, Tau(pS422) fragment SEQ ID NO: 03 (human).
T3 construct: also called phosphorylated tau peptide
T3 peptide: SIDMVD[pS]PQLATLAD
Put plainly: ELISA, ratio of EC50 values. As for the experimental part: Rabbit monoclonal antibodies were recombinantly expressed in HEK293 cells. […] For preparation of ELISA plates, streptavidin pre-coated microtiter plates were incubated with biotinylated tau (415-430)[pS422] at 50 ng/ml for 1 hour at room temperature. Coating with KLH or control peptides was performed at 1 μg/ml. Rabbit anti-Tau(pS422) antibody (Abcam AB51071) or rabbit antibody containing supernatants were incubated in the antigen labeled microtiter plates for 60 minutes at various concentrations. After intensive washing, the binding of the rabbit antibodies was detected using a sheep anti-rabbit IgG […] conjugated detection antibody (Chemicon AQ301D). After incubation with TMB at room temperature absorbance at 370 nm-492 nm was measured. The antibody binding was characterized by its EC₅₀ values. […] Cross-reactivity with KLH or MCAK phosphopeptide was estimated by single-point measurement at high concentrations, i.e., at 1:5 dilution of the cell culture supernatants. […] Binding to KLH and MCAK control phosphopeptide was at background level with all antibodies, which is about 1 to 3% of the maximal value measures with tau phosphopeptide.

In test [4] the target is T1, full length human tau SEQ ID NO: 01. As to the kind of experiment: ELISA, non-phosphorylated full-length human tau coated at 1 ug/ml, antibody titrated.
In test [5] the target is T4, biotinylated pTau fragment pTau(416-430)[Bi-XUUUU-416; pSer-422]amid (human, reading uncertain; also: printed as pTau(416-430)[Bi-XUUUU-416; pSer-422]amid).
T4 construct: also called Tau(pS422) fragment
T4 peptide: {Biotin-code X-code U-code U-code U-code U}-SIDMVD[pS]PQLATLAD-NH2
As to the kind of experiment: SPR direct assay (Example 11), Fab over immobilized biotinylated fragment, 25 C. As for the experimental part:
Binding of anti-pTau antibody Fab fragment samples to pTau fragment was investigated by surface plasmon resonance using a BIACORE T200 instrument (GE Healthcare). […] Running and dilution buffer for immobilization was HBS-N, pH 7.4 (10 mM HEPES, 150 mM NaCl, pH 7.4, GE Healthcare). For the following kinetic characterization, running and dilution buffer was PBS-T (10 mM phosphate buffered saline including 0.05% Tween 20), pH 7.4. The sample block was set to 12° C. The flow cell was set to 25° C. and primed with running buffer twice.
Association was measured by injection of the anti-pTau antibody Fab fragment samples at various concentrations in solution for 180 seconds at a flow of 30 μl/min starting with 100 nM in 1:3 dilutions. The dissociation phase was monitored for up to 600 seconds and triggered by switching from the sample solution to running buffer. The surface was regenerated by washing with one injection of 10 mM glycine solution, pH 1.7 for 60 seconds at a flow rate of 10 μl/minute. Bulk refractive index differences were corrected by subtracting the response obtained from a blank surface. Blank injections were also subtracted (=double referencing). For calculation of KD and other kinetic parameters the Langmuir 1:1 model was used.

For test [6], the target named is T3, Tau(pS422) fragment SEQ ID NO: 03. Put plainly: SPR capture assay (Example 10), 25 C. The protocol:
Binding of pTau fragment to anti-pTau antibodies was investigated by surface plasmon resonance using a BIACORE T200 instrument (GE Healthcare). Around 10,000 resonance units (RU) of the capturing system (10 μg/ml goat anti-human Fc antibody; Jackson Immuno Research; Order Code: JIR 109-005-098) were coupled on a CM5 chip (GE Healthcare BR-1005-30) at pH 5.0 by using an amine coupling kit supplied by the GE Healthcare. As running buffer, HBS-N pH 7.4 (10 mM HEPES, 150 mM NaCl, pH 7.4, GE Healthcare) was used. For measurement of the samples, running and dilution buffer was PBS-T (10 mM phosphate buffered saline including 0.05% Tween 20), pH 7.4. The sample block was set to 12° C. The flow cell was set to 25° C. and primed with running buffer twice.

The target is the same in test [7]. Put plainly: ELISA. As for the experimental part: as §1
The target is the same in test [8]. Put plainly: ELISA. The protocol: Non-biotinylated peptide/protein/aggregate was added to non-coated Maxisorb plates, biotinylated peptide/protein/aggregate in PBS was added to streptavidin-coated Maxisorb plates, and plates were incubated over-night. The supernatant was discarded and the wells washed three times with 90 μl wash buffer (1x PBS/0.1% Tween 20). Remaining reactive spots were blocked with blocking buffer (1x PBS/2% BSA (Bovine Serum Albumin Fraction V, fatty acid free, Roche, Cat. No.: 10735078001)/0.05% Tween 20) by incubating for 1 hour. The supernatant was discarded and the wells washed three times with 90 μl wash buffer. Samples and control antibody were prepared in 12 dilutions (1:2) in ELISA buffer (1×PBS/0.5% BSA (Bovine Serum Albumin Fraction V, fatty acid free, Roche, Cat. No.: 10735078001)/0.05% Tween 20) with a start concentration of 500 ng/mL. The incubation time was 60 minutes at room temperature on a shaker. The supernatant was discarded and the wells washed three times with 90 μl wash buffer. Solutions of secondary antibody were prepared in ELISA buffer. A total of 25 μl antibody-mix was transferred to all wells of the assay plate and the plate was thereafter incubated on shaker for 60 minutes at room temperature. The supernatant was discarded and the wells were washed three times with 90 μl wash buffer. 25 μl of ABTS solution was added to all wells. The absorbance was read at 405 nm-492 nm.

B1: VH00/VL00 (antibody, V domains shown)
VH: QSVEESGGRLVTPGTPLTLTCTVSGFSLSSNAINWVRQAPGKGLEWIGYIAVSGNTYYASWAKGRFTISKASTTVDLKMTSPTAEDTGTYFCGKSNIWGPGTLVTVSL
VL: AQVLTQTTSPVSAAVGSTVTISCQSSQSVRTNKLAWFQQKPGQPPKRLIYSASTLDFGVPSRFSASGSGTQFTLTISDVQCDDAATYYCLGYFDCSIADCVAFGGGTEVVVK
notes: variable domains of rabbit mAb 086; also called VH00 with VL00 (rabbit antibody); parental rabbit antibody
On to B1, for which the “OD@1 µg/mL” value worked out at 0.04 OD in test [1] and 0.54 OD in test [2].

B2: mAb 086 (antibody, V domains shown)
VH: B1 VH
VL: B1 VL
notes: also called rabbit antibody 086
B2: in test [3], the “selectivity for phosphorylated tau fragment compared to non-phosphorylated tau peptide” value is ≥ 100 fold.

B3: VH32/VL21 (antibody, V domains shown)
VH: EVQVLESGGGLVQPGGSLRLSCAVSGFSLSSNAINWVRQAPGKGLEWVGYIAVSGNTYYASWAKGRFTISRDNSKNTVYLQMNSLRAEDTAVYYCGKSNIWGQGTLVTVSS
VL: AQVMTQSPSSLSASVGDRVTITCRSSQSVRTNKLAWFQQKPGQPPKRLIYSASTLDFGVPSRFSGSGSGTEFTLTISSLQPEDFATYYCLGYFDSSADIVAFGGGTKVEIK
notes: full size IgG
Consider B3, for which the binding result in test [4] is “no binding (tested: 1000 ng/ml)”.

B4: VH35H5/VL31A1 Fab fragment (Fab, V domains shown)
VH: B3 VH with F27I
VL: B3 VL with T31N, T54D, F57Y
Consider B4, for which, in test [5], the Kd amounted to 0.3 nM, the dissociation rate constant (koff) amounted to 0.000143 s⁻¹ and the kon was 410000 M⁻¹ s⁻¹.

B5: VH35H5/VL31A1 (antibody, V domains shown)
VH: B3 VH with F27I
VL: B3 VL with T31N, T54D, F57Y
notes: IgG captured via anti-human Fc; also called antibody 1
In test [6], B5 showed a Kd of 1.62 nM, a koff of 0.000616 s⁻¹ and an association rate constant (kon) of 380000 M⁻¹ s⁻¹. Also, a half-maximal effect in test [7] (EC50) was put at 0.033 µg/mL. Further, the “OD@1 µg/mL” value in test [1] is 0.04 OD. The “OD@1 µg/mL” value in test [2] was 1.03 OD.

B6: VH76A6/VL145B12 (antibody, V domains shown)
VH: B3 VH with S31N, N32S
VL: B3 VL with T31S, S51A, T54N
notes: IgG captured via anti-human Fc
For the molecule B6, the “OD@1 µg/mL” value in test [1] was 0.04 OD; in test [2] it was 0.44 OD.

B7: VH32/VL22 Fab fragment (Fab, V domains shown)
VH: B3 VH
VL: B3 VL with K33R, F57Y
In test [5], B7 gave a Kd of 0.6 nM, a dissociation rate constant (koff) of 0.000276 s⁻¹ and a kon of 479000 M⁻¹ s⁻¹.

B8: VH32/VL22 (antibody, V domains shown)
VH: B3 VH
VL: B3 VL with K33R, F57Y
notes: full size IgG
For the molecule B8, the 50% effective concentration (EC50) stood at 0.0056 µg/mL in test [8] and 0.0404 µg/mL in test [7]. Besides, the “OD@1 µg/mL” value in test [1] turned out to be 0.14 OD; in test [2], 2.26 OD. For the same molecule, the binding result in test [4] is recorded as “no binding (tested: 1000 ng/ml)”.

B9: VH35H5/VL49G1 Fab fragment (Fab, V domains shown)
VH: B3 VH with F27I
VL: B3 VL with T31S, T54N, F57Y
In test [5], B9 returned a Kd of 0.1 nM, a koff of 6.03e-05 s⁻¹ and a kon of 423000 M⁻¹ s⁻¹.

B10: VH35H5/VL35F2 (antibody, V domains shown)
VH: B3 VH with F27I
VL: B3 VL with S96P, A97L
notes: as for B6
Consider B10, for which, in test [6], the affinity, expressed as Kd, was 2.29 nM; the koff was 0.000321 s⁻¹; the kon turned out to be 140000 M⁻¹ s⁻¹. Moreover, in test [7], the EC50 amounted to 0.0452 µg/mL. For the same molecule, the “OD@1 µg/mL” value in test [1] was found to be 0.04 OD. Besides, the “OD@1 µg/mL” value in test [2] stood at 1.31 OD.

B11: VH32/VL35G4 (antibody, V domains shown)
VH: B3 VH
VL: B3 VL with L90A, D94E, S95A, S96P
notes: as for B6
In the case of B11, the “OD@1 µg/mL” value in test [1] stood at 0.04 OD; in test [2] it was 0.07 OD.

B12: VH35H5/VL49G1 (antibody, V domains shown)
VH: B3 VH with F27I
VL: B3 VL with T31S, T54N, F57Y
notes: IgG captured via anti-human Fc; also called antibody 2
Take B12: in test [6], the Kd came to 2 nM, the koff was 0.000624 s⁻¹ and the association rate constant (kon) stood at 312000 M⁻¹ s⁻¹. In test [7], this molecule showed an EC50 of 0.034 µg/mL. In addition, the “OD@1 µg/mL” value in test [1] worked out at 0.04 OD. The “OD@1 µg/mL” value in test [2] stood at 1.42 OD.

B13: VH32/VL4G1 (antibody, V domains shown)
VH: B3 VH
VL: B3 VL with S96P
B13 returned an EC50 in test [7] of 0.0273 µg/mL. The “OD@1 µg/mL” value worked out at 0.04 OD in test [1] and 1.13 OD in test [2].

B14: VH76A6/VL35G4 (antibody, V domains shown)
VH: B3 VH with S31N, N32S
VL: B3 VL with L90A, D94E, S95A, S96P
notes: as for B6
As to B14, the “OD@1 µg/mL” value in test [1] was found to be 0.04 OD; in test [2], 0.07 OD.

The record behind these values is patent US20180079804A1 (Hoffmann-La Roche, published 2018).
